± gives the uncertainty stated by the source.
Assay: self-splicing fitness, log relative to wild type (ln ratio); higher = more splicing; Tetrahymena group I intron in knt gene, E. coli kanamycin selection, DiMSum; sequences stand for … in CUCUCU…GGAGGGAAAAGUUAUCAGGCAUGCACCUGGUAGCUAGUCUUUAAACCAAUAGAUUGCAUCGGUUUAAAAGGCAAGACCGUCAAAUUGCGGGAAAGGGGUCAACAGCCGUUCAGUACCAAGUCUCAGGGGAAACUUUGAGAUGGCCUUGCAAAGGGUAUGGUAAUAAGCUGACGGACAUGGUCCUAACCACGCAGCCAAGUCCUAAGUCAACAGAUCUUCUGUUGAUAUGGAUGCAGUUCACAGACUAAAUGUCGGUCGGGGAAGAUGUAUUCUUCUCAUAAGAUAUAGUCGGACCUCUCCUUAAUGGGAGCUAGCGGAUGAAGUGAUGCAACACUGGAGCCGCUGGGAACUAAUUUGUAUGCGAAAGUAUAUUGAUUAGUUUUGGAGUACUCGUGGUCG
In short: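 Pooled colonies went to amplicon sequencing on an Illumina HiSeq 2500 after six replicate transformations. The plates were LB agar with 100 μg/mL carbenicillin, 50 μM IPTG and 0.2% rhamnose, with or without 25 μg/mL kanamycin, incubated overnight at 37°C or 30°C. The E. coli BL21(DE3) library had all eight P1ex-region intron nucleotides randomised, the intron placed in the knt kanamycin-resistance gene on pET-22b(+). DiMSum fitness is the error-weighted combination of replicate fold changes, kanamycin against none, normalised to wild type.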

Row | Sequence | self-splicing fitness (ln) (30 °C) | self-splicing fitness (ln) (37 °C)
1 | AUAUAGCAAUAUUACGUCCU | -0.548 ± 0.11 | 0.119 ± 0.12
2 | AUAUAGCAAUAUUACGUGAA | -1.57 ± 0.28 | -0.717 ± 0.33
3 | AUAUAGCAAUAUUACGUGAC | – | -2.85 ± 0.32
4 | AUAUAGCAAUAUUACGUGUU | -4.26 ± 0.39 | -1.21 ± 0.18
5 | AUAUAGCAAUAUUACGUUAA | -2.76 ± 0.23 | -3.36 ± 0.37
6 | AUAUAGCAAUAUUACGUUCA | -0.388 ± 0.23 | -0.707 ± 0.23
7 | AUAUAGCAAUAUUACGUUGC | -2.4 ± 0.19 | -1.25 ± 0.23
8 | AUCAAGCAAUAUUACGAAUU | -3.12 ± 0.14 | -1.21 ± 0.14
9 | AUCAAGCAAUAUUACGAGUC | -3.08 ± 0.23 | -2.19 ± 0.24
10 | AUCAAGCAAUAUUACGAUCG | -3.37 ± 0.2 | -3.55 ± 0.28
11 | AUCAAGCAAUAUUACGAUGC | -2.01 ± 0.19 | -1.1 ± 0.23
12 | AUCAAGCAAUAUUACGAUUU | -0.487 ± 0.056 | -0.186 ± 0.072
13 | AUCAAGCAAUAUUACGCCCG | -0.965 ± 0.17 | -0.202 ± 0.2
14 | AUCAAGCAAUAUUACGCCUA | -0.765 ± 0.11 | -0.646 ± 0.095
15 | AUCAAGCAAUAUUACGGAAA | -2.58 ± 0.24 | -1.7 ± 0.21
16 | AUCAAGCAAUAUUACGGAAG | -2.78 ± 0.11 | -2.01 ± 0.12
17 | AUCAAGCAAUAUUACGGAUC | -3.29 ± 0.25 | -1.91 ± 0.21
18 | AUCAAGCAAUAUUACGGCCC | -0.747 ± 0.31 | –
19 | AUCAAGCAAUAUUACGGCCU | -0.508 ± 0.05 | 0.15 ± 0.066
20 | AUCAAGCAAUAUUACGGCUA | -0.209 ± 0.097 | 0.184 ± 0.11
21 | AUCAAGCAAUAUUACGGUUG | -3.05 ± 0.25 | -1.92 ± 0.19
22 | AUCAAGCAAUAUUACGUAAU | -1.1 ± 0.056 | -0.247 ± 0.081
23 | AUCAAGCAAUAUUACGUAGU | -2.22 ± 0.08 | -1.14 ± 0.097
24 | AUCAAGCAAUAUUACGUCAC | -2.32 ± 0.16 | -2.28 ± 0.3

Row | Sequence | self-splicing fitness (ln) (30 °C) | self-splicing fitness (ln) (37 °C)
25 | AUCAAGCAAUAUUACGUCAU | -2.05 ± 0.088 | -1.45 ± 0.088
26 | AUCAAGCAAUAUUACGUCGU | -1.5 ± 0.052 | -0.574 ± 0.071
27 | AUCAAGCAAUAUUACGUGCC | -1.51 ± 0.14 | -0.426 ± 0.16
28 | AUCAAGCAAUAUUACGUGCU | -2.33 ± 0.088 | -1.7 ± 0.11
29 | AUCAAGCAAUAUUACGUGGC | -4.3 ± 0.37 | -3.52 ± 0.35
30 | AUCCAGCAAUAUUACGAAUA | -1.44 ± 0.13 | -0.957 ± 0.13
31 | AUCCAGCAAUAUUACGAAUG | -1.94 ± 0.12 | -1.36 ± 0.11
32 | AUCCAGCAAUAUUACGACUG | -3.86 ± 0.3 | -2.95 ± 0.28
33 | AUCCAGCAAUAUUACGAGAG | -1.45 ± 0.098 | -1.05 ± 0.1
34 | AUCCAGCAAUAUUACGCAGG | -2.84 ± 0.3 | -2.7 ± 0.37
35 | AUCCAGCAAUAUUACGCAUU | -1.37 ± 0.064 | -0.265 ± 0.082
36 | AUCCAGCAAUAUUACGCCCG | -1.84 ± 0.38 | -1.04 ± 0.37
37 | AUCCAGCAAUAUUACGCUGC | -3.85 ± 0.19 | -1.59 ± 0.15
38 | AUCCAGCAAUAUUACGGAGG | -2.21 ± 0.097 | -0.607 ± 0.13
39 | AUCCAGCAAUAUUACGGAUU | -3.25 ± 0.12 | -2.83 ± 0.21
40 | AUCCAGCAAUAUUACGGCGC | -0.203 ± 0.1 | -0.114 ± 0.14
41 | AUCCAGCAAUAUUACGGGUU | -3.75 ± 0.15 | -2.89 ± 0.21
42 | AUCCAGCAAUAUUACGGUAG | -3.97 ± 0.2 | -2.6 ± 0.15
43 | AUCCAGCAAUAUUACGGUGC | -1.6 ± 0.096 | -1.27 ± 0.14
44 | AUCCAGCAAUAUUACGUAAA | -1.3 ± 0.064 | -0.843 ± 0.093
45 | AUCCAGCAAUAUUACGUACA | -1.28 ± 0.11 | -0.729 ± 0.18
46 | AUCCAGCAAUAUUACGUACU | -1.56 ± 0.14 | -0.416 ± 0.15
47 | AUCCAGCAAUAUUACGUCGA | -0.897 ± 0.097 | -0.557 ± 0.12
48 | AUCCAGCAAUAUUACGUGAC | -1.03 ± 0.077 | -0.702 ± 0.11

Row | Sequence | self-splicing fitness (ln) (30 °C) | self-splicing fitness (ln) (37 °C)
49 | AUCCAGCAAUAUUACGUUAC | -3.89 ± 0.24 | -2.59 ± 0.22
50 | AUCCAGCAAUAUUACGUUUU | -2.04 ± 0.083 | -1.15 ± 0.11
51 | AUCGAGCAAUAUUACGAAAC | -2.27 ± 0.31 | –
52 | AUCGAGCAAUAUUACGAAAU | -2.63 ± 0.37 | -1.87 ± 0.46
53 | AUCGAGCAAUAUUACGACUA | -1.54 ± 0.24 | -0.741 ± 0.15
54 | AUCGAGCAAUAUUACGAGAU | -2.58 ± 0.13 | -2.01 ± 0.17
55 | AUCGAGCAAUAUUACGAGGA | -1.16 ± 0.4 | -2.07 ± 0.31
56 | AUCGAGCAAUAUUACGAGUG | -3.32 ± 0.3 | -2.09 ± 0.32
57 | AUCGAGCAAUAUUACGAUGC | -2.77 ± 0.47 | -1.77 ± 0.42
58 | AUCGAGCAAUAUUACGCUGC | -2.59 ± 0.45 | –
59 | AUCGAGCAAUAUUACGGACG | -2.42 ± 0.17 | -2.96 ± 0.2
60 | AUCGAGCAAUAUUACGGCGA | -1.24 ± 0.18 | -0.629 ± 0.17
61 | AUCGAGCAAUAUUACGUCCU | -1.18 ± 0.11 | -0.423 ± 0.18
62 | AUCGAGCAAUAUUACGUCUU | -2.79 ± 0.12 | -1.41 ± 0.12
63 | AUCGAGCAAUAUUACGUGAG | -1.78 ± 0.11 | -1.53 ± 0.15
64 | AUCGAGCAAUAUUACGUGGA | -3.68 ± 0.37 | -2.33 ± 0.22
65 | AUCGAGCAAUAUUACGUUGU | -4 ± 0.26 | -3.62 ± 0.31
66 | AUCGAGCAAUAUUACGUUUA | -2.49 ± 0.29 | -2.26 ± 0.37
67 | AUCUAGCAAUAUUACGAAUG | -2.37 ± 0.18 | -0.667 ± 0.19
68 | AUCUAGCAAUAUUACGACCC | -0.615 ± 0.21 | 0.543 ± 0.31
69 | AUCUAGCAAUAUUACGACUG | -2.01 ± 0.14 | -1.07 ± 0.15
70 | AUCUAGCAAUAUUACGAGCC | -2.69 ± 0.45 | –
71 | AUCUAGCAAUAUUACGAGGG | -2.92 ± 0.16 | -2.18 ± 0.18
72 | AUCUAGCAAUAUUACGAGUA | -2.58 ± 0.27 | -1.53 ± 0.18

Row | Sequence | self-splicing fitness (ln) (30 °C) | self-splicing fitness (ln) (37 °C)
73 | AUCUAGCAAUAUUACGAUAA | -2.1 ± 0.22 | -1.1 ± 0.3
74 | AUCUAGCAAUAUUACGAUGG | -3.59 ± 0.2 | -1.75 ± 0.19
75 | AUCUAGCAAUAUUACGAUUC | -2.85 ± 0.18 | -1.23 ± 0.16
76 | AUCUAGCAAUAUUACGCAGU | -2.53 ± 0.18 | -2.09 ± 0.2
77 | AUCUAGCAAUAUUACGCCAU | -2.72 ± 0.2 | -1.05 ± 0.15
78 | AUCUAGCAAUAUUACGCCCA | -0.101 ± 0.29 | -1.32 ± 0.24
79 | AUCUAGCAAUAUUACGCCCG | -0.765 ± 0.38 | -0.733 ± 0.3
80 | AUCUAGCAAUAUUACGGAGU | -2.61 ± 0.28 | -1.52 ± 0.2
81 | AUCUAGCAAUAUUACGGCGU | -0.0812 ± 0.084 | 0.429 ± 0.1
82 | AUCUAGCAAUAUUACGGGAU | -2.92 ± 0.2 | -2.28 ± 0.22
83 | AUCUAGCAAUAUUACGGGUA | -1.97 ± 0.15 | -1.49 ± 0.12
84 | AUCUAGCAAUAUUACGGUAC | -2.16 ± 0.11 | -2.44 ± 0.14
85 | AUCUAGCAAUAUUACGUAUU | -2.56 ± 0.15 | -2.08 ± 0.19
86 | AUCUAGCAAUAUUACGUCUA | -2.83 ± 0.25 | -1.59 ± 0.21
87 | AUCUAGCAAUAUUACGUGCC | -2.47 ± 0.23 | -1.08 ± 0.15
88 | AUCUAGCAAUAUUACGUGCG | -1.47 ± 0.21 | -0.647 ± 0.17
89 | AUCUAGCAAUAUUACGUGGG | -2.22 ± 0.18 | -2.42 ± 0.27
90 | AUCUAGCAAUAUUACGUUUG | -3.39 ± 0.28 | -2.04 ± 0.37
91 | AUCUAGCAAUAUUACGUUUU | -2.93 ± 0.11 | -1.93 ± 0.12
92 | AUGAAGCAAUAUUACGAAUG | -1.25 ± 0.095 | -0.913 ± 0.1
93 | AUGAAGCAAUAUUACGACAC | 0.0739 ± 0.12 | -0.0401 ± 0.14
94 | AUGAAGCAAUAUUACGACUU | -0.222 ± 0.099 | -0.0268 ± 0.12
95 | AUGAAGCAAUAUUACGAUCC | -0.571 ± 0.11 | 0.455 ± 0.16
96 | AUGAAGCAAUAUUACGCAAC | -1.28 ± 0.16 | -1.13 ± 0.16
